PMC5183593, “Conformational Rigidity within Plasticity Promotes Differential Target Recognition of Nerve Growth Factor” (Frontiers in Molecular Biosciences, 2016)

Target: the molecule itself
Assay: NMR relaxation (T1, T2, heteronuclear NOE); 15N relaxation at 600 MHz and 30°C; correlation time 14.8 ns

B1: recombinant mouse Nerve Growth Factor (mNGF) (natural protein, UniProt P01139 122-241, looked up)
chain: SSTHPVFHMGEFSVCDSVSVWVGDKTTATDIKGKEVTVLAEVNINNSVFRQYFFETKCRASNPVESGCRGIDSKHWNSYCTTTHTFVKALTTDEKQAAWRFIRIDTACVCVLSRKATRRG
modifications: 15N or 15N-13C isotope labeled
notes: Nerve Growth Factor (beta-NGF), mouse, mature form cut from the precursor proNGF; 118 amino acids per protomer (S1 to residue 118), non-covalent homodimer of 26 kDa; numbers count on: the mature protein; Expression host and the details of the construct are in the Supplementary Information and in Paoletti et al., 2011; also called mouse NGF
- stoichiometry N: 2
